The values below come from the supplement of paper PMC7877785.

The nature of this data set: self-splicing fitness, log relative to wild type (ln ratio); higher = more splicing; Tetrahymena group I intron in knt gene, E. coli kanamycin selection, DiMSum; sequences stand for … in CUCUCU…GGAGGGAAAAGUUAUCAGGCAUGCACCUGGUAGCUAGUCUUUAAACCAAUAGAUUGCAUCGGUUUAAAAGGCAAGACCGUCAAAUUGCGGGAAAGGGGUCAACAGCCGUUCAGUACCAAGUCUCAGGGGAAACUUUGAGAUGGCCUUGCAAAGGGUAUGGUAAUAAGCUGACGGACAUGGUCCUAACCACGCAGCCAAGUCCUAAGUCAACAGAUCUUCUGUUGAUAUGGAUGCAGUUCACAGACUAAAUGUCGGUCGGGGAAGAUGUAUUCUUCUCAUAAGAUAUAGUCGGACCUCUCCUUAAUGGGAGCUAGCGGAUGAAGUGAUGCAACACUGGAGCCGCUGGGAACUAAUUUGUAUGCGAAAGUAUAUUGAUUAGUUUUGGAGUACUCGUGGUCG
In outline: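 DiMSum derived fitness as the error-weighted combination of fold changes across replicates, kanamycin versus no kanamycin, normalised to wild type. E. coli BL21(DE3) held the library, which randomised all eight P1ex-region intron nucleotides within the knt kanamycin-resistance gene on pET-22b(+). Six replicate transformations grew overnight at 37°C or 30°C on LB agar with or without 25 μg/mL kanamycin, also containing 100 μg/mL carbenicillin, 50 μM IPTG and 0.2% rhamnose, and pooled colonies were amplicon-sequenced on an Illumina HiSeq 2500.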

± gives the uncertainty stated by the source.

Turning to CCUUAGCAAUAUUACGUGCG, the “self-splicing fitness (ln)” value is -3.52 ± 0.21 (30 °C) and -2.04 ± 0.17 (37 °C).
For AUUCAGCAAUAUUACGCUCC the same measures were -0.31 ± 0.073 and 0.274 ± 0.096.
In the same order, the values of GUGUAGCAAUAUUACGACCU are -0.216 ± 0.27 and 0.601 ± 0.24.
In the case of GGUUAGCAAUAUUACGUGGC, the “self-splicing fitness (ln)” value (30 °C) was -3.21 ± 0.34 and the “self-splicing fitness (ln)” value (37 °C) was -1.64 ± 0.19.
Regarding UUAAAGCAAUAUUACGUCAU, the “self-splicing fitness (ln)” value (30 °C) was -1.94 ± 0.18 and the “self-splicing fitness (ln)” value (37 °C) is -0.671 ± 0.17.
In the same order, the values of GCAUAGCAAUAUUACGUUCU are -2 ± 0.096 and -0.899 ± 0.1.
In the same order, the values of AUCGAGCAAUAUUACGCAAU are -2.08 ± 0.21 and -2.75 ± 0.4.
As for AUGGAGCAAUAUUACGAAAU, under “30 °C”, the “self-splicing fitness (ln)” value is -1.92 ± 0.23.
As for GCGAAGCAAUAUUACGACCG, the “self-splicing fitness (ln)” value (30 °C) is -1.66 ± 0.25 and the “self-splicing fitness (ln)” value (37 °C) was -0.671 ± 0.21.
In the same order, the values of CGACAGCAAUAUUACGUUUG are -3.09 ± 0.15 and -1.19 ± 0.11.
In the same order, the values of GUGAAGCAAUAUUACGUAAG are -0.979 ± 0.088 and -0.0954 ± 0.13.
For UAUCAGCAAUAUUACGCGAG the same measures were -0.712 ± 0.057 and -0.298 ± 0.071.
For AGACAGCAAUAUUACGAUGG, the “self-splicing fitness (ln)” value (30 °C) was -3.44 ± 0.16 and the “self-splicing fitness (ln)” value (37 °C) was -2.21 ± 0.16.
With AGGUAGCAAUAUUACGACGA, the “self-splicing fitness (ln)” value is -0.363 ± 0.016 (30 °C) and -0.00769 ± 0.034 (37 °C).
Regarding GCAUAGCAAUAUUACGCCUU, the “self-splicing fitness (ln)” value (37 °C) was -1.42 ± 0.21.
As to ACUCAGCAAUAUUACGACUC, the “self-splicing fitness (ln)” value is, setting by setting: (30 °C) -0.493 ± 0.054; (37 °C) -0.0647 ± 0.068.
In the same order, the values of UCUUAGCAAUAUUACGCAAA are -1.56 ± 0.32 and -2.31 ± 0.29.
For GUAAAGCAAUAUUACGAAUA the same measures were -1.68 ± 0.093 and -0.495 ± 0.15.
For UAACAGCAAUAUUACGCGGU the same measures were -3.25 ± 0.17 and -3.29 ± 0.15.
Regarding GACAAGCAAUAUUACGUAAC, the “self-splicing fitness (ln)” value (30 °C) is -1.64 ± 0.077 and the “self-splicing fitness (ln)” value (37 °C) is -1.22 ± 0.11.
For the sequence CAGAAGCAAUAUUACGCCUU, the “self-splicing fitness (ln)” value was -1.78 ± 0.087 (30 °C) and -0.677 ± 0.11 (37 °C).
For UAUUAGCAAUAUUACGUCAG, the “self-splicing fitness (ln)” value by setting is: (30 °C) -1.84 ± 0.1; (37 °C) -0.992 ± 0.12.
For GUGUAGCAAUAUUACGAACU, the “self-splicing fitness (ln)” value reads like this: (30 °C) -1.57 ± 0.25; (37 °C) -0.299 ± 0.2.
For AAAAAGCAAUAUUACGGCUU the same measures were -0.00557 ± 0.049 and 0.259 ± 0.066.
In the same order, the values of UUACAGCAAUAUUACGAAGA are -1.25 ± 0.15 and -0.992 ± 0.15.
For AGUUAGCAAUAUUACGCCCG the same measures were -1.52 ± 0.44 and 0.364 ± 0.45.
In the case of UAUUAGCAAUAUUACGUAAG, the “self-splicing fitness (ln)” value (30 °C) is -2.05 ± 0.18 and the “self-splicing fitness (ln)” value (37 °C) was -1.41 ± 0.25.
As for CACCAGCAAUAUUACGGCUU, the “self-splicing fitness (ln)” value reads like this: (30 °C) -1.91 ± 0.087; (37 °C) -0.758 ± 0.093.
For UGGCAGCAAUAUUACGCUUA the same measures were -0.68 ± 0.088 and 0.67 ± 0.1.
In the same order, the values of GCCAAGCAAUAUUACGCCUC are -1.32 ± 0.1 and -0.316 ± 0.1.
For ACAUAGCAAUAUUACGUUUC the same measures were -3.55 ± 0.23 and -2.84 ± 0.3.
Take GCGUAGCAAUAUUACGGAAA: the “self-splicing fitness (ln)” value was -3.29 ± 0.37 (30 °C) and -0.0155 ± 0.18 (37 °C).
For AAUUAGCAAUAUUACGUAGG the same measures were -2.69 ± 0.12 and -1.96 ± 0.18.
In the same order, the values of GGCCAGCAAUAUUACGAAAG are -4.21 ± 0.37 and -2.71 ± 0.41.
In the same order, the values of AUAUAGCAAUAUUACGAACA are -0.789 ± 0.2 and -0.183 ± 0.21.
Regarding CACUAGCAAUAUUACGGCAG, the “self-splicing fitness (ln)” value is -0.257 ± 0.049 (30 °C) and 0.189 ± 0.066 (37 °C).
Regarding GGUAAGCAAUAUUACGUCUC, the “self-splicing fitness (ln)” value by setting is: (30 °C) -1.04 ± 0.13; (37 °C) -1.27 ± 0.16.
In the same order, the values of CAGGAGCAAUAUUACGGCGG are -0.542 ± 0.074 and -0.0448 ± 0.091.
Turning to CUGUAGCAAUAUUACGAUAG, the “self-splicing fitness (ln)” value is -1.9 ± 0.23 (30 °C) and -1.17 ± 0.15 (37 °C).
For CCUGAGCAAUAUUACGGUGU the same measures were -3.89 ± 0.24 and -2.32 ± 0.14.
For AGGUAGCAAUAUUACGUUGU the same measures were -3.385 ± 0.02 and -1.95 ± 0.035.
For the sequence UCCGAGCAAUAUUACGCACG, under “30 °C”, the “self-splicing fitness (ln)” value was -3.01 ± 0.43.
On to AGUCAGCAAUAUUACGGGUC, for which the “self-splicing fitness (ln)” value by setting is: (30 °C) -1.27 ± 0.11; (37 °C) -1.43 ± 0.15.
For GUGUAGCAAUAUUACGUACG the same measures were -2.64 ± 0.23 and -1.14 ± 0.16.
For GUCCAGCAAUAUUACGACGU the same measures were 0.172 ± 0.091 and 0.365 ± 0.085.
For CUCGAGCAAUAUUACGGUCU the same measures were -3.02 ± 0.15 and -2.11 ± 0.17.
For the sequence GCGUAGCAAUAUUACGCAGU, the “self-splicing fitness (ln)” value reads like this: (30 °C) -4.05 ± 0.34; (37 °C) -2.28 ± 0.25.
As for GCCCAGCAAUAUUACGACAC, the “self-splicing fitness (ln)” value (30 °C) is -1.64 ± 0.081 and the “self-splicing fitness (ln)” value (37 °C) was -0.294 ± 0.11.
In the same order, the values of AGUCAGCAAUAUUACGCUAU are -0.623 ± 0.1 and -0.137 ± 0.11.
For CAGAAGCAAUAUUACGCCGU the same measures were -3.06 ± 0.21 and -1.94 ± 0.23.
For AGGAAGCAAUAUUACGAUAC the same measures were -3.27 ± 0.26 and -2.02 ± 0.2.
For UCAGAGCAAUAUUACGACAA, the “self-splicing fitness (ln)” value (37 °C) was -2.96 ± 0.49.
In the case of UGUUAGCAAUAUUACGGGGC, the “self-splicing fitness (ln)” value (30 °C) is -3.37 ± 0.34 and the “self-splicing fitness (ln)” value (37 °C) was -3.32 ± 0.46.
For UUGGAGCAAUAUUACGAUCA the same measures were 0.364 ± 0.35 and -0.451 ± 0.45.
In the same order, the values of CCUUAGCAAUAUUACGAACG are -0.742 ± 0.18 and -0.847 ± 0.25.
For the sequence ACCUAGCAAUAUUACGGAAG, the “self-splicing fitness (ln)” value reads like this: (30 °C) -2.8 ± 0.23; (37 °C) -2.38 ± 0.19.
Take ACUUAGCAAUAUUACGAUAA: the “self-splicing fitness (ln)” value runs as follows: (30 °C) -2.81 ± 0.27; (37 °C) -0.457 ± 0.3.
In the same order, the values of CGUUAGCAAUAUUACGAUUC are -3.09 ± 0.19 and -1.68 ± 0.18.
Consider AGCCAGCAAUAUUACGGUGG, for which the “self-splicing fitness (ln)” value by setting is: (30 °C) -4.22 ± 0.19; (37 °C) -2.17 ± 0.17.
For AUUGAGCAAUAUUACGAUGC, the “self-splicing fitness (ln)” value (30 °C) is -1.58 ± 0.38.
Take CAAGAGCAAUAUUACGGGUC: the “self-splicing fitness (ln)” value is -3.71 ± 0.21 (30 °C) and -2.17 ± 0.17 (37 °C).
For GAUAAGCAAUAUUACGAUUA the same measures were -0.905 ± 0.12 and 0.0831 ± 0.12.
For GGUGAGCAAUAUUACGGUCA the same measures were -1.77 ± 0.32 and -1.79 ± 0.38.
For UUUGAGCAAUAUUACGGCAU the same measures were -1.56 ± 0.33 and -1.62 ± 0.3.
As for GAGGAGCAAUAUUACGGACU, the “self-splicing fitness (ln)” value was -1.49 ± 0.14 (30 °C) and -1.22 ± 0.28 (37 °C).
For CUACAGCAAUAUUACGUACA the same measures were -1.78 ± 0.17 and -1.29 ± 0.2.
In the case of CCGCAGCAAUAUUACGGCAU, the “self-splicing fitness (ln)” value (30 °C) is -3.29 ± 0.2 and the “self-splicing fitness (ln)” value (37 °C) is -2.38 ± 0.17.
In the same order, the values of CCGAAGCAAUAUUACGAUUG are -1.16 ± 0.093 and -0.0885 ± 0.095.
For AAAUAGCAAUAUUACGGGUA the same measures were -2.15 ± 0.12 and -1.41 ± 0.1.
Turning to CUAAAGCAAUAUUACGAGCG, the “self-splicing fitness (ln)” value reads like this: (30 °C) 0.136 ± 0.057; (37 °C) 0.289 ± 0.073.
For AUAAAGCAAUAUUACGGGAC the same measures were -1.72 ± 0.1 and -2.4 ± 0.16.
In the same order, the values of UACCAGCAAUAUUACGCGCA are 0.0526 ± 0.065 and -0.42 ± 0.08.
In the same order, the values of CUUCAGCAAUAUUACGGCAU are -2.78 ± 0.17 and -2.1 ± 0.2.
For UGUAAGCAAUAUUACGUCAU, the “self-splicing fitness (ln)” value was -2.39 ± 0.16 (30 °C) and -1.28 ± 0.19 (37 °C).
In the same order, the values of GAUCAGCAAUAUUACGAGGU are -2.98 ± 0.24 and -2.84 ± 0.22.
In the same order, the values of UCUGAGCAAUAUUACGCGUA are -2.5 ± 0.19 and 0.763 ± 0.13.
